Results from paper PMC2901396.

Target: DNA polymerase gamma catalytic subunit p140, Exo- R964C (Homo sapiens, UniProt P54098 26-1239, D198A;E200A;R964C)
Assay: EMSA

Sequence of DNA polymerase gamma catalytic subunit p140, Exo- R964C (P54098 26-1239 D198A/E200A/R964C): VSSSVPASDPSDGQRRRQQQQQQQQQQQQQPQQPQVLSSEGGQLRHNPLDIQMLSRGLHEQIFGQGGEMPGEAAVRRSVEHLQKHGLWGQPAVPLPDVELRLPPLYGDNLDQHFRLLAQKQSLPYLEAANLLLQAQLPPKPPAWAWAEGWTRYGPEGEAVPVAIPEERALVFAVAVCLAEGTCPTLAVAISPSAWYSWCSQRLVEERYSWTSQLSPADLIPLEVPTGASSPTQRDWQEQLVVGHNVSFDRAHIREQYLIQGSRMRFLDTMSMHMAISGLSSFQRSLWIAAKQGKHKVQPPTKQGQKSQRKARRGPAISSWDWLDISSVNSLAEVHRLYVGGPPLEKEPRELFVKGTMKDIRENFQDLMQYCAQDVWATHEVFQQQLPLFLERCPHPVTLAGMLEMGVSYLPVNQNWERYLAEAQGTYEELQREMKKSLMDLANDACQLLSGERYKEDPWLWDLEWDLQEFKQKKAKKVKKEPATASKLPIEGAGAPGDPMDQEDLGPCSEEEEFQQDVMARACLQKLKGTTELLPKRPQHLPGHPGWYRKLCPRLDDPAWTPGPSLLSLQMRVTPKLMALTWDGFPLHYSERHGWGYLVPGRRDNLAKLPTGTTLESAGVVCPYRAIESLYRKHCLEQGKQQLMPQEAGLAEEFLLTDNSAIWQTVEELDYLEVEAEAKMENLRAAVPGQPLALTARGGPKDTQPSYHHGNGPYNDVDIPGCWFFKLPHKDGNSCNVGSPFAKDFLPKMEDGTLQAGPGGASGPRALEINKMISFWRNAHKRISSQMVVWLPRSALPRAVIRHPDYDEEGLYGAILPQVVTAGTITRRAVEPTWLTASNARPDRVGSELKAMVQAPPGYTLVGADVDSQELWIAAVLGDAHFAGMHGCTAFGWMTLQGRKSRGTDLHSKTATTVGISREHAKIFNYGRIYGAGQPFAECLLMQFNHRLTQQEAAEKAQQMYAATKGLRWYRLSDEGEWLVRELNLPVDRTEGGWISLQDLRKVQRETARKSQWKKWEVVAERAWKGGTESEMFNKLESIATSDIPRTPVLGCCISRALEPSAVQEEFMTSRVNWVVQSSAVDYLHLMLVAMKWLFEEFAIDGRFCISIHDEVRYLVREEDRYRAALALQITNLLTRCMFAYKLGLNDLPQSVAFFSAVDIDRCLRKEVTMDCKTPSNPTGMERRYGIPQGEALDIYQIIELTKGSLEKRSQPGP

B1: 38-mer/34-mer primer-template (dsDNA)
DNA 1: TTATCGCACCTACGTTCAATATTACAGGCGAACATACT
DNA 2: GTATGTTCGCCTGTAATATTGAACGTAGGTGCGA
Kd: 75 ± 4 nM
